Laboratory results from a protein production outcome set (Wang et al. 2014).

Test: label from the status in PepcDB records
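Further: failed if final PepcDB status was selected cloned or expressed and not failed if soluble or beyond.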

Row | Sequence | protein production
1 | MALDSSGKQPEQQQQQQPRASSGNGEARLKLRRTPNEEHEPENYEDLPLDYSPSLFTSLERYLPEQLLNSTRIDKASFMRDLLLRYSPDTERVRVLRHKEYRDKIMSSYQRLHGEIYTLDPSSFFAPSFLGAFSRKSEPNFRSSMVESYPGIFTFEMFKPQFCEMLLAEVEHMEKWVYDSRSTIMRPNTMNNFGVVLDDFGFDSMLQKLVDDFISPIAQVLFPEVCGTSLDSHHGYIVEYGKDRDVDLGFHVDDSEVSLNVCLGKQFSGGELYFRGVRCDKHVNSDSTEKEVYDYSHVPGHAILHRGRHRHGARATTSGHRANLILWCRSSTFREMKNYQRDFSGWCGGCKLDKQRRQRDSINATKEILARKAAEKTLVELASKSCAE | failed
2 | MAIAFHTFLLQLLLFFFASFAEANDSRKTYLVQMKVGGHRYGSSSGHQELLGEVLDDDSYKESFTGFSASLTPRERQKLMSKTTTVSSRRREVLEVSRSRNLKLQTTRSWDFMNLTLKAERNPENESDLVVAVIDSGIWPYSELFGSDSPPPPGWENKCENITCNNKIVGARSYYPKKEKYKWVEEKSVIDVTGHGTHVASIVAGRKVEKAGYFGLAEGTMRGGVPNAKIAVYKTCWRVIRKNGREDSVCREDNILKAIDDAIADKVDIISYSQGFQFTPLQKDKVSWAFLRALKNGILTSAAAGNYANNGKFYYTVANGAPWVMTVAASLKDRIFETKLELEGEDKPIIVYDTINTFETQDSFYPLLNEKAPPESTRKRELIAERNGYSILSNYDEKDKGKDVFFEFAQINLLDEAIKEREKGAIVLGGKSYDFNESIKLQFPIASIFLDEQKKGKLWDYYKKDQSKERLAKIHKTEEIPREEGWVPTVAHLSSRGPNCDSFLANILKNSHMNNCFQPDIAAPGLDIIAGWPENVKLSSDRPANDYRHLRFNIMSGTSMACPHATGLALYLKSFKRWSPSAIKSALMTTSSEMTDDDNEFAYGSGHLNATKVRDPGLVYETHYQDYIDYLCKLGYNTEKLRSHVGSDKIDCSKTEIDHDADLNYPTMTARVPLPLDTPFKKVFHRTVTNVNDGEFTYLREINYRGDKDFDEIIVDPPQLKFSELGETKTFTVTVTGISKRNWNKNRAFMTRNTWLTWTEKDGSRQVRSPIVIYSIKGPKACM | failed
3 | MSSFRSAWAGAPAGIAVARTGQSVPLLNAAAALAVAMAVGGWLSGARHASAIDATQIESWRAMVAQAMEPQALRQLRQLARGGSTPARTALGEALLDSRDASLRHEGVRWLEAAAQPADGAPGDARAQLALGKALLLGTGGVARDYPRALHLLRQAADRGDAAAAYYLGLMYRSGYGTAANTALAAHWFDGAARHGIPAAMFMLANAYRDGDGVPRDEARALALYEQAAEHELPEAVQALAMAYQNGELGLARDDAAFRKQWLETAHALKHPALTP | failed
4 | MKAPLVSIIIPVWNLWELTCACLDSIRAHTPGNAVEVIVVDNGSDDTTATALAPTGEGLFGARFRRIRLETNRGFAVACNLGAAKAQGTYLLLLNNDTVLSPGWLPPLLREFDDEPRTGAAGPLLVYPDSGRVQHCGIAFAPTLQTEHLYANFPATHPAVRARRTLQAITGAAMLLPTALFRQCGGFHEGYKNGCEDLELCCRIREQGLRLAVVPESLVAHHESRTPGRKEHDAANATLLNRRCSGCFGPDLHRHALRDGFAIALTPWLDTYLTLPPGREAALTREHITDFDPGRCWETLQGEPLWHGGYEMLCSILDEAGRHAESAGVRLLQAGFFPTLPGFRQLARSAALSGNDELARQAAEKMQHIGGILEDPEPLVTRARGLVRWARRAGEPAVEALYTGWLTDIGLSADDLEHHHHHH | not failed
5 | MVSFRSRSNPAVVILGLGRFGMALGEELVHSGVEVMGIDTNPAVVDKASAILTYAAVADTTSEEALRQLAVNEASRVVIGIGSDMGASLLTASAVVEFNIPSIWAKALNNSHAKILKQIGVHHIIRPEQDTGRRIAHLMNGRVQEYAEFDRDYAIVKIAPPVSALGKKVCDFDRVQIIAVRPAGGMFRQSKPEMVLRSGDLILAAGNPDELERFGTLD | failed
6 | MPVVECDIQTARAALADAGASFSDGNSEHELWHADLGDAHAVAYADKLVVQGGSPTDITAVVQPDRGGRVHAYFDGASRGNPGPAAVGWVLVSGDGGIVAEGGDTIGRATNNQAEYDALIAALEAAADFGFDDIELRGDSQLVEKQLTGAWDTNDPDLRRKRVRARELLTGFDDWSITHVPRATNERADALANEALDDA | failed
7 | YAHLRAGALRRLLQAQRLLPTGVRFLVLEGYRPPQLQRRYFEEYAATMRAAHPDEAPDRIRELTSAYISPPEVAPHVSGGAVDLTLCGADGTELPLGTEVNATPEESEGACRTAAPNISVEARANRAVMDRALTAVGFVNYPTEWWHWSYGDR | failed
8 | MTYKVFIDGEAGTTGLQIRARLEGRDDIRLITLGDADRKDTRARLAAFDAADVGILCLPDAAAVEIVAQLAGTGTRLIDASTAHRVDPGWVFGFAELDNDLRARIAGGQFVSNPGCYSTGAIALLHPLVKRGLIAADQALAINAISGYSGGGKAMIAEFESGKTDGPFVYATEQRHKHLPEIVAHAGLTRQPVFVPSVGPYEQGMIVQVPLPFVEPGQGAAIEAALADHYATSRFVSVVSPDHYGARIDPRRLNGTNQLELSVHGNLDTGGAVLLALLDNLGKGASGAAVQNLNIMLGLDEGLGL | failed
9 | MAKYNEIAKKKREAKADRKRAIHGDPLTNKLKTRTPVPSVSGKRQRKLLRKWRREQKDMVEKGLVTMEDVEMASAQAASEDSKKSPRKFSVKKSLKLNKLNNKGKKKKNQKASGEKSADCMLE | failed
10 | MILFADYNTPYLFAISFVLLIGLLEIFALICGHMLSGALDAHLDHYDSITTGHISQALHYLNIGRLPALVVLCLLAGFFGLIGILLQHACIMVWQSPLSNLFVVPVSLLFTIIAVHYTGKIVAPWIPRDHSSAITEEEYIGSMALITGHQATSGNPCEGKLTDQFGQIHYLLLEPEEGKIFTKGDKVLIICRLSATRYLAENNPWPQIL | failed
11 | MGVKFTLMGTTAGLGVPAFHCNCIACREARADPFWARTRSGAVLETGKENILIDASPDLSKQLLRERIQSVDYLFVTHWHYDHFGGIGDLEYYVKLERKWPVALFLPPSAVDDFAKVYPFLEEVFVIEPWEFGKSYAFEGIELTVLPARHSIETGGILLAGSKRAAYFTDTAGLPAPTARQLQGVDTLICDATFNGANWFPHSHMNWQEAIALGESIRAQHTVLTHLAMHYSTPITAAQLQEKLKDYAQVSLAYDGMVLTI | failed
12 | MASSISAAEVKVVPEEYNFLQKHVAFFDRNKDGIVYPSETFQGFRAIGCGYLLSTFAAVFINISLSSKTRPGKGFSFSFPIEVKNVRLGIHSSDSGVYDKDGRFVASKFEEIFAKHAHTHRDALTSKELKELLKANREPNDCKGGILAFGEWKVLYNLCKDKSGLLHKEIVRAVYDGSLFEQLEKQRSSKTP | failed
13 | MDLFVMVVGASGIGDGGEQKYNYKLRAWTNEDDPRQTKIVTTNADPEFREVLHLPQNMASSFLNLELFSVNSADTDAFFIGRANTALPMKTNANVYRKIKLQNLDTSGNIVTVGYLEVYLGLETG | failed
14 | MEKCDFYHIIVLSLNFPGYLKMEYGSTKMEERLSRSPGGKLALWAFYTWCGYFVWAMARYIWVMSRIPDAPVSGFESDLGSTAGKWLGALVGFLFMALVGALLGSIAWYTRPRPARSRRYE | failed
15 | MNLIINDKTASSSVGQTIGKAARLNHAHVGYVCGGHGLCQACYITVQEGADCLAPLTDVEKAFLSPRQIAAGGRMACQATIAKEGTVKVLSRPEEVRRMVFSNPFQLIGYAADMGKDTAQQIVPGVQNLIGRIQRGEMGGKDALGDMIESIQGAAGLVVEAIQQGPMALPIPFKEQIADLISKLPLPQIQLPSISLPQLPSISFPQLPFSLPKLPFSLPFLPQQPQATASLEKVTITVQPPAKD | failed
16 | MSAEEKNLIEILEEGHKVDVVKYIDYVSAPQAGAIATFSGTTRDMFEGKTVLELRYEAYVPMATRCLSSICTTARSTWDIHKIAVAHRLGPVPVGETSVLIAVSSVHRADGLDACKFLIDELKASVPIWKKEVYTNGEIWKENSEFMEKRLELAEKRDSIVKKTVVEEHRRRGCCGSKVRVEEDEEHKDITGDNKSSS | failed
17 | MPADIIIHNGSLITFDEARPQAQALAIQGGMIAAVGSDAEILALAGPETRLIDAGGGTVLPGFIDSHVHLFGGSVELDCLSLYGVKGLDAMRAAIQPYAQANPDDALVFCVMADYDILGTGHTLTRHDLDSILADRPLAMFAPDHHTVWANTAALEATGLLQGGEVDAGSLIVLGEDGLANGELLEPGAYGPILGLTRHGGREMLGLTTGKDPEPPATPDQRARDKDVIARGLAHCAAQGITGLHLMDGNRYQLELLTELEAEGRLLCRCEVPFHMKGTDPVERMTAEAPAMRAAYRGDKVRCNHLKMFIDGVIESGTALMLRPYPGELGANDNTGDEVFTQEHFTACCVEADRLGFQIAVHAIGDAGVRRTIDAFEAARRANGTRDSRHRIEHIEVIHPDDIPRLAELDIVASLQPGHAPRGHVFPPGAVGQYLHPDQIVGAYAWQTIRETGARVVFSTDWPVIPVDVMPSLRAAIAPLDLGPDWPDQSQSLMDTLASYTRDNAWVEFNEDSKGRLKVGMAADIAVLSHDLTALAPDDITQAAAMVTIMDGAVTYQRPG | failed
18 | MKEARKRMVKRAVQEIKDGMNVNLGIGMPTLVANEIPDGVHVMLQSENGLLGIGPYPLEGTEDADLINAGKETITEVTGASYFDSAESFAMIRGGHIDLAILGGMEVSEQGDLANWMIPGKMVKGMGGAMDLVNGAKRIVVIMEHVNKHGESKVKKTCSLPLTGQKVVHRLITDLAVFDFVNGRMTLTELQDGVTIEEVYEKTEADFAVSQSVLNS | not failed
19 | MPYKTKSDLPESVKHVLPSHAQDIYKEAFNSAWDQYKDKEDRRDDASREETAHKVAWAAVKHEYAKGDDDKWHKKS | not failed
20 | MTQHITRMRREIDEIPEAVQRLLDHGAQDVARVAAVLRLRDPSFVATVARGSSDHVCTYLSYAAELLLGLPVASLGPSVASVYDARLRLDRALCLAVSQSGKSPDIVAMTRNAGRDGALCVALTNDAASPLAGVSAHTIDIHAGPELSVAATKTFVTSAVAGLMLLADWAEDDGLRAALGNLPETLAAASRIDWPEMRVAIGARPSLFTLGRGTSLAVSNEAALKFKETCQLHAESYSSAEVLHGPVSIVEEGFPVLGFAAGDAAEAPLAEIADQIAAKGATVFATTGRVTRARVLEHVRSGHALTDPLSLIVSFYSMVEAFASERGIDPDAPRHLNKVTETV | not failed
21 | MAALSEKEAEAYLDARPRYPIDWFKKIAARTQDHKFAWDVGTGNGQAAIGLVEHYENVVATDINEAQLQRAIKHSRISYHHTPTTISEDEMVDLLGGENSVDLIVAAQAVHFFDLNVFYNVAKRVLRKEGGLIAVWVYNDIIISHEIDPIMKRLVDSTLPFRTPIMNLAFDGYKTLTFPFETIGMGSEGKPITLDIPHKLSLKGFIGFLRSWQPAMKAKEKGVELINEDLITKFEEAWGDETQVKDVFYKAHMIVGKIPEEKFESDQVLSNKGRLLLETEVGRNQKRPQPSDEGDRQSKKQNTSEDDACKDKPSSVFSTHYRF | failed
22 | MRAMRLVEIGKPLKLEDIPIPKPKGSQVLIKIEAAGVCHSDVHMRQGRFGNLRIVEDLGVKLPVTLGHEIAGRIEEVGDEVVGYSKGDLVAVNPWEGEGNCYYCRIGEEHLCDSPRWLGINYDGAYAEYVLVPHYKYLYKLRRLSAVEAAPLTCSGVTTYRAVRKASLDPSKTLVVIGAGGGLGTMAIQIAKAVSGATIIGVDVREEALEAAKRAGADYVINASSQDPVSEIRRITQGKGADAVIDLNNSEKTLSIYPYVLAKQGKYVMVGLFGADLKYHAPLITLNEVQFIGSLVGNQSDFLGIMSLAEAGKVKPMVTKTMKLEEANEAIDNLENFKAVGRQVLVP | not failed
